Our source for the Kd values is patent publication US20250043001A1 (published 2025).

The target in this experiment is human CD28 (human, UniProt P10747 19-152). The experiment in a line: -; scFv VHVL.

B1: 1A7_H1.14_L1 (antibody, V domains shown)
VH: EVQLLESGGGLVQPGGSLRLSCAASGFTFSSYYMSWVRQAPGKGLEWVSTISESGDSTYYADSVKGRFTISRDNSKNTLYLQMNSLRAEDTAVYYCAKSGPGLRQVGFDYWGQGTLVTVSS
VL: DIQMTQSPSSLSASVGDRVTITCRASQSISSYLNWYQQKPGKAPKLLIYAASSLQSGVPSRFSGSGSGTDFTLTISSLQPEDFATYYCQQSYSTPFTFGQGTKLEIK
In turn, B1 came in with a Kd of 230 nM.
